The values that follow come from the supplement of paper PMC10724198.

± gives the standard deviation of the averaged measurements.

In the data set the test system is Saccharomyces cerevisiae. As to the kind of experiment: protein stability index of tFT-peptide fusion (C-terminal peptide) (PSI (0-1 scale)); higher = more stable (slower turnover). To be noted: temperature: 30 C. How it is done: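 MPS profiling in S. cerevisiae of the yeast C-terminome library: the last 12 aa of each annotated ORF are fused to the C-terminus of a sfGFP-mCherry timer, after a GGGS linker. Cells are FACS-sorted into 8 mCherry/sfGFP bins and deep-sequenced. PSI runs from 0 (unstable) to 1 (stable); wild type and das1Δ backgrounds, two technical replicates each.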

The mark [1] stands for this setting: genetic background: das1 deletion.

As for PTPPTPPTPPQQ [ECM19 C-terminal 12 aa], the protein stability index runs as follows: under setting [1], 0.701 ± 0.014; (genetic background: wild type) 0.687 ± 0.027.

On to PTTRPYIYEPRK [ELA1 C-terminal 12 aa], for which the protein stability index runs as follows: under setting [1], 0.696 ± 0.011; (genetic background: wild type) 0.662 ± 0.017.

As to PTWQIVEDIRNT [PMT3 C-terminal 12 aa], the protein stability index by setting is: under setting [1], 0.728 ± 0.025; (genetic background: wild type) 0.718 ± 0.038.

Consider PVIKKSKKCAIL [CDC42 C-terminal 12 aa], for which the protein stability index stood at 0.757 ± 0.0059 under setting [1] and 0.6072 ± 0.0055 (genetic background: wild type).

With “PVRHQTGMHFCI [YHR032W-A C-terminal 12 aa]”, the protein stability index is, setting by setting: under setting [1], 0.721 ± 0.009; (genetic background: wild type) 0.682 ± 0.029.

As for PVVFHSGPVVWK [YLR415C C-terminal 12 aa], the protein stability index reads like this: under setting [1], 0.72 ± 0.034; (genetic background: wild type) 0.6969 ± 0.0058.

For PYLEEAYSNLEE [PPX1 C-terminal 12 aa], the protein stability index is 0.685 ± 0.0024 under setting [1] and 0.722 ± 0.048 (genetic background: wild type).

QCPVCRSPLPPL [TUL1 C-terminal 12 aa]: the protein stability index came out at 0.714 ± 0.023 under setting [1] and 0.742 ± 0.013 (genetic background: wild type).

On to QEAGAFTFNEDF [RNR2 C-terminal 12 aa], for which the protein stability index is, setting by setting: under setting [1], 0.726 ± 0.018; (genetic background: wild type) 0.711 ± 0.0081.

“QEFVCFLFWPLT [YOR335W-A C-terminal 12 aa]” showed a protein stability index under setting [1] of 0.63 ± 0.0097 and a protein stability index (genetic background: wild type) of 0.6034 ± 0.0059.

For QELCADSTIYHM [LIP1 C-terminal 12 aa], the protein stability index under setting [1] worked out at 0.687 ± 0.017 and the protein stability index (genetic background: wild type) amounted to 0.734 ± 0.065.

Take QELLKLLENEKK [SLK19 C-terminal 12 aa]: the protein stability index stood at 0.727 ± 0.029 under setting [1] and 0.726 ± 0.047 (genetic background: wild type).

Consider “QFSFKAVTFLLI [YOR314W-A C-terminal 12 aa]”, for which the protein stability index reads like this: under setting [1], 0.629 ± 0.048; (genetic background: wild type) 0.563 ± 0.052.

Regarding QILLDKLNAVKK [HIT1 C-terminal 12 aa], the protein stability index reads like this: under setting [1], 0.66 ± 0.03; (genetic background: wild type) 0.653 ± 0.019.

As for QKDSRGKKKIKK [YMR114C C-terminal 12 aa], the protein stability index is, setting by setting: under setting [1], 0.691 ± 0.026; (genetic background: wild type) 0.63611 ± 0.00024.

On to QKKEEAKHKASE [UFD2 C-terminal 12 aa], for which the protein stability index reads like this: under setting [1], 0.711 ± 0.0087; (genetic background: wild type) 0.721 ± 0.067.

Take QNNSQGFLREII [TDA7 C-terminal 12 aa]: the protein stability index is 0.6961 ± 0.004 under setting [1] and 0.6925 ± 0.0034 (genetic background: wild type).

Consider QNRFISINKIFW [YDR133C C-terminal 12 aa], for which the protein stability index was determined as 0.7034 ± 0.0032 under setting [1] and 0.6671 ± 0.0016 (genetic background: wild type).

As for QRRTSLDYGGYF [TAF3 C-terminal 12 aa], the protein stability index by setting is: under setting [1], 0.708 ± 0.02; (genetic background: wild type) 0.725 ± 0.011.

Turning to QSLVESPPPYVP [SNA4 C-terminal 12 aa], the protein stability index worked out at 0.6915 ± 0.0048 under setting [1] and 0.7 ± 0.015 (genetic background: wild type).

With QTQLCKRKKKLT [VIK1 C-terminal 12 aa], the protein stability index under setting [1] was determined as 0.687 ± 0.024 and the protein stability index (genetic background: wild type) worked out at 0.608 ± 0.051.

Regarding QTVSTYTKVTPK [NCE103 C-terminal 12 aa], the protein stability index is 0.715 ± 0.016 under setting [1] and 0.702 ± 0.025 (genetic background: wild type).

In turn, QVLGTEEPTVRT [PGM2 C-terminal 12 aa] gave a protein stability index under setting [1] of 0.696 ± 0.046 and a protein stability index (genetic background: wild type) of 0.6625 ± 0.0017.

For the sequence QVVDTIKDVHRC [YBR197C C-terminal 12 aa], the protein stability index under setting [1] came out at 0.7 ± 0.027 and the protein stability index (genetic background: wild type) came out at 0.706 ± 0.021.

As to RALVDAIQLRGV [CGI121 C-terminal 12 aa], the protein stability index stood at 0.68 ± 0.024 under setting [1] and 0.663 ± 0.0088 (genetic background: wild type).

RDFFFKNVCVKM [TBS1 C-terminal 12 aa] gave a protein stability index under setting [1] of 0.623 ± 0.018 and a protein stability index (genetic background: wild type) of 0.56 ± 0.0057.

Regarding RDLQSALVRQLL [CAD1 C-terminal 12 aa], the protein stability index reads like this: under setting [1], 0.718 ± 0.025; (genetic background: wild type) 0.68 ± 0.021.

For RDRLVESCHFTQ [CIN4 C-terminal 12 aa], the protein stability index under setting [1] is 0.722 ± 0.023 and the protein stability index (genetic background: wild type) was 0.706 ± 0.022.

Regarding RDVTDWWESREI [CCZ1 C-terminal 12 aa], the protein stability index reads like this: under setting [1], 0.7553 ± 0.0041; (genetic background: wild type) 0.7652 ± 0.0026.

Consider REKAEAEAEKKK [RPL13A C-terminal 12 aa], for which the protein stability index is, setting by setting: under setting [1], 0.704 ± 0.014; (genetic background: wild type) 0.68 ± 0.0053.

Take RELGFLFGLNAL [ULS1 C-terminal 12 aa]: the protein stability index reads like this: under setting [1], 0.751 ± 0.011; (genetic background: wild type) 0.6855 ± 0.0018.

On to RELWDEEKEIVL [KES1 C-terminal 12 aa], for which the protein stability index amounted to 0.704 ± 0.033 under setting [1] and 0.73 ± 0.037 (genetic background: wild type).

In turn, RERAKKLVTWLI [SSY1 C-terminal 12 aa] registered a protein stability index under setting [1] of 0.6701 ± 0.0019 and a protein stability index (genetic background: wild type) of 0.475 ± 0.026.

In the case of RFIRTANKKDYL [IMP4 C-terminal 12 aa], the protein stability index reads like this: under setting [1], 0.671 ± 0.0071; (genetic background: wild type) 0.7335 ± 0.0025.

For “RHHEQSHGQEDH [YLR361C-A C-terminal 12 aa]”, the protein stability index turned out to be 0.6985 ± 0.0034 under setting [1] and 0.6868 ± 0.0011 (genetic background: wild type).

With RHICVGAKLCKF [MCH4 C-terminal 12 aa], the protein stability index by setting is: under setting [1], 0.8165 ± 0.0035; (genetic background: wild type) 0.818 ± 0.11.

RHSCGRQMRVLA [AUA1 C-terminal 12 aa] returned a protein stability index under setting [1] of 0.6614 ± 0.0011 and a protein stability index (genetic background: wild type) of 0.248 ± 0.0083.

In the case of RIEMDLALTEPL [ORC6 C-terminal 12 aa], the protein stability index reads like this: under setting [1], 0.691 ± 0.016; (genetic background: wild type) 0.685 ± 0.015.

As to RIRQEIIKTKLL [EMP47 C-terminal 12 aa], the protein stability index runs as follows: under setting [1], 0.67995 ± 0.00042; (genetic background: wild type) 0.234 ± 0.032.

Regarding RKESSGGCCIIC [RAS1 C-terminal 12 aa], the protein stability index by setting is: under setting [1], 0.738 ± 0.014; (genetic background: wild type) 0.709 ± 0.011.

For RKLLERSNKFHI [PET127 C-terminal 12 aa], the protein stability index reads like this: under setting [1], 0.689 ± 0.009; (genetic background: wild type) 0.746 ± 0.088.

Take RKPPGFFDEGFM [FLC3 C-terminal 12 aa]: the protein stability index was determined as 0.733 ± 0.061 under setting [1] and 0.6965 ± 0.0051 (genetic background: wild type).

With “RKSENYLNGRQT [YNL067W-B C-terminal 12 aa]”, the protein stability index amounted to 0.681 ± 0.017 under setting [1] and 0.721 ± 0.0088 (genetic background: wild type).

Take RKVPYKIIPYVY [ERG24 C-terminal 12 aa]: the protein stability index came out at 0.514 ± 0.019 under setting [1] and 0.5005 ± 0.0021 (genetic background: wild type).

As to RLANIQSFFQRQ [TVP23 C-terminal 12 aa], the protein stability index reads like this: under setting [1], 0.7155 ± 0.0018; (genetic background: wild type) 0.726 ± 0.064.

For the sequence RLIGELGKLTED [YNL115C C-terminal 12 aa], the protein stability index by setting is: under setting [1], 0.683 ± 0.0088; (genetic background: wild type) 0.701 ± 0.037.

Regarding RLLNLQKVIYST [LDB18 C-terminal 12 aa], the protein stability index came to 0.662 ± 0.013 under setting [1] and 0.493 ± 0.064 (genetic background: wild type).

In the case of RMIEYLEEYQAW [FRE4 C-terminal 12 aa], the protein stability index amounted to 0.706 ± 0.0073 under setting [1] and 0.72 ± 0.011 (genetic background: wild type).

In the case of RNIDVSNLPSLA [STM1 C-terminal 12 aa], the protein stability index by setting is: under setting [1], 0.691 ± 0.011; (genetic background: wild type) 0.6785 ± 0.0067.

Take RQVLDREGLRFG [TRS31 C-terminal 12 aa]: the protein stability index under setting [1] was 0.693 ± 0.027 and the protein stability index (genetic background: wild type) was found to be 0.705 ± 0.0087.
